Patent US20100234274A1, “Use of Nestafin-1 in the Treatment for Diabetes” (priority 2009, published 2010)

How the values were obtained:
[1] = test system: db/db mice; assay: Inhibitor pre-treatment before i.v. nesfatin-1 in db/db mice, blood glucose; assay type: in vivo, mouse; conditions: blood glucose in 6 hours
Description: GW9662, a PPAR-gamma irreversible inhibitor, was i.v. injected into the tail vein of db/db mice at the dose of 0.45 μg per gram body weight. After 30 minutes, 100 ug Nesfatin-1 was injected into the tail vein of db/db mice. Blood glucose was measured in 6 hours.
Compound C, a 5′-AMP-activated protein kinase (AMPK) specific inhibitor, was intraperitoneally injected to db/db mice at the dose of 20 mg per kg body weight. Subsequently, 100 ug Nesfatin-1 was injected into the tail vein of db/db mice. Blood glucose was measured in 6 hours.

[2] = test system: db/db mice; assay: i.v. injection of plasmin inhibitors in db/db mice (serum nesfatin-1, food intake, body weight); assay type: in vivo, mouse; conditions: for circulating nesfatin-1: serum at 30 minutes
Description: Lower nesfatin-1 in “saline” than “ff db/db” (FIG. 3b) was due to blood dilution after injection. (b) Reduction in body weight after a 3-day i.v. AMCA (15 mg/day); (c) Food intake at day 3 during a 3-day i.v. AMCA (15 mg/day).
Hypothalamus in acetic acid supplemented with protease inhibitor cocktail tablets (Roche, Indianapolis, Ind.) was homogenized, sonicated and heated at 95° C. for 15 minutes. The samples were then centrifuged at 13,200 rpm at 4° C. for 30 minutes. The supernatants were finally collected as their protein contents were determined by the Bradford assay (Thermo-Fisher Sci. Rockford, Ill.). Mouse serum was freshly prepared by drawing blood through ophthalmectomy. About […] hypothalamic total proteins or 25 μL serum were analyzed with Waters Delta 600E/2487/717 HPLC system using an analytical C18 reverse phase column (4.6×250 mm/5 μm, Hambon, Zhangjiagang, Conn.). Nesfatin-1 was eluted with a linear gradient from 20%-40% solvent B (solvent A: water with 0.1% trifluoroacetic acid, solvent B: acetonitrile with 0.1% trifluoroacetic acid) for 20 minutes at the flow rate of iml/minute. The purified nesfatin-1 was used as the standard to determine the retention time and plot the standard curve. The fraction collected at the retention time was sent for the mass spectrometry analysis.
It is unknown how nesfatin-1 is cleared from circulation. The tiny amount of plasmin generation in periphery was previously reported and confirmed in our study (data not shown). AMCA and aprotinin, two inhibitors of plasmin, was i.v. injected to db/db. The reduction in food intake and body weight was seen while circulating nesfatin-1 was increased (FIG. 8). […] Therefore, peripheral nesfatin-1 was believed at least partially to be degraded by plasmin.

[3] = molecular target: T1, recombinant nesfatin-1 (UniProt P81117)
T1 sequence: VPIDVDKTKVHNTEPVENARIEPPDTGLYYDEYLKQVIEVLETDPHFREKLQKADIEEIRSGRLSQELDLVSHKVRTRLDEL

[4] = i.c.v. or i.p. injection; cited from earlier work
[5] = both directions, nonsaturable system; cited from earlier work
[6] = test system: db/db mice; assay: Blood glucose after i.v. nesfatin-1 in db/db mice; assay type: in vivo, mouse
[7] = test system: Streptozotocin-induced type-I diabetic C57BL/6J mice; assay: Streptozotocin-induced type-I diabetic mice, blood glucose; assay type: in vivo; conditions: 100 μg/mouse i.v. alone or combined with s.c. insulin (2 ng/mouse)
Description: (§1) Amazingly as described above, the diabetic symptoms of db/db mice were essentially eliminated in plg^−/−lepr^−/−, which couldn't be possibly explained by the anorexigenic effect of nesfatin-1.
Male C57BL/6J mice (10 weeks) were given intraperitoneal injections of Streptozotocin (STZ) in sodium citrate (pH 4.5) on two consecutive days (100 mg/kg/day). Blood glucose was measured by tail vein sampling using the glucose oxidase enzymatic test. Diabetes was defined as a morning blood glucose reading of >16 mM after STZ. When blood glucose levels exceeded 30 mM, diabetic mice were given 16 ng of porcine insulin (Wangbang, Xuzhou, Conn.) every second day to prevent weight loss while maintaining blood glucose levels within the hyperglycemic range (16-30 mM). Nesfatin-1 (100 μg/mouse) was i.v. injected either alone or combined with s.c. insulin (2 ng/mouse) to STZ-induced type-I diabetic mice.

[8] = test system: wild-type mice; assay: Intraperitoneal glucose tolerance test (IGTT) in wild-type mice; assay type: in vivo, mouse; conditions: 100 μg nesfatin-1, i.v. injection of 1.5 g/kg glucose
Description: Mice of the investigated genotype (plg^+/+lepr^−/−, plg^−/−lepr^−/−, plg^+/+lepr^+/+, plg^−/−lepr^+/+) were fasted for 18 hours at 8, 16 and 24 weeks old, before blood sampling from tail veins to measure fasting blood glucose using a glucose meter (Accu-Chek, Roche). Mice serum insulin was measured at the age of 12 weeks by ELISA (ALPCO, Salem, N.H.). IGTT was performed previously. As briefly, 12-week old mice were placed in clean cages without food at 4 pm on the day prior to the experiment. […] Blood glucose was measured immediately before and at 10, 20, 30, 60, 90, 120, and 180 minutes after the injection of glucose.
as §1

[9] = test system: rats; conditions: cited from earlier work
[10] = test system: ob/ob mice; assay: Blood lipid analysis after i.v. nesfatin-1 in ob/ob mice; assay type: in vivo, mouse; conditions: 100 ug tail vein, 3 hours after injection
Description: One hundred ug Nesfatin-1 was injected into the tail vein of ob/ob mice. Blood samples were taken 3 hours after the injection for lipid analysis.

[11] = molecular target: plasmin (Homo sapiens, UniProt P00747); assay: Incubation of recombinant nesfatin-1 with plasmin; assay type: biochemical
plasmin, sequence (P00747 97-810, species assumed): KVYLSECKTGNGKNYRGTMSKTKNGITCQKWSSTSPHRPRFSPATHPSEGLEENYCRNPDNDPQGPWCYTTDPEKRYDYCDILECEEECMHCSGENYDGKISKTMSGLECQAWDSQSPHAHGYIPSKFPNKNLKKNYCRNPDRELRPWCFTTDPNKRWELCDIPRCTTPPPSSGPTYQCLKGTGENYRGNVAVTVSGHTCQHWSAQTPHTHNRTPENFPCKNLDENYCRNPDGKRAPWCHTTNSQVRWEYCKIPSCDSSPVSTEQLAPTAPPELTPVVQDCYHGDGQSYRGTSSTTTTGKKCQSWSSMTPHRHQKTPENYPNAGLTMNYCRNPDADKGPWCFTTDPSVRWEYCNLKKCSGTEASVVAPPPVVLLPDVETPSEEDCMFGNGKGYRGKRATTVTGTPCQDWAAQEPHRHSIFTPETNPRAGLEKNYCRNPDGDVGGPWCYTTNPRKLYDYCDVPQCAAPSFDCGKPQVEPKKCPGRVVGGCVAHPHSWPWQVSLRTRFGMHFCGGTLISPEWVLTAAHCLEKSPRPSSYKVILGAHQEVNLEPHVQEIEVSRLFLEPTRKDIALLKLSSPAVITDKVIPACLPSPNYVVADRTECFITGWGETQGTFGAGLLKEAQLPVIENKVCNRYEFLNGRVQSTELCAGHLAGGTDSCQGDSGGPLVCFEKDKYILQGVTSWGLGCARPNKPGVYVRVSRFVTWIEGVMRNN
plasmin, sequence (P00747 97-580 partner limits assumed, species assumed): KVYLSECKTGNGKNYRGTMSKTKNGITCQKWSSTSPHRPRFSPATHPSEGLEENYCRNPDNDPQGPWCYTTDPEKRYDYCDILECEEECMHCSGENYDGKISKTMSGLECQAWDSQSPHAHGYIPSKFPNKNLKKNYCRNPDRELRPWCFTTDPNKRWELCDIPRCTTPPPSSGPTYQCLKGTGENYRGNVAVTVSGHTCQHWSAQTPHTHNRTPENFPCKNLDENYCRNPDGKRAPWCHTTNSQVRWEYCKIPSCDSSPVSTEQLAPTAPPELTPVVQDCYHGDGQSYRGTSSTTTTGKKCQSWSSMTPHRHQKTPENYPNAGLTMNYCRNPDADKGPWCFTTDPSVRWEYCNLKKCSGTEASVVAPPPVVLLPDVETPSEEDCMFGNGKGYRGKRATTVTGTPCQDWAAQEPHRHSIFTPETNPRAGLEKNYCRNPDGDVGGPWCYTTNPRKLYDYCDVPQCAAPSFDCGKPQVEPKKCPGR
Description: Arrows indicated the putative cleavage sites by plasmin. (b) Nesfatin-1 was completely digested by plasmin within 2 hours.
The recovery of hypothalamic nesfatin-1 in plg^−/−lepr^−/− was consistent to its normalization in food intake and body weight (FIG. 2ac). Fasted mice always had less nesfatin-1 in hypothalamus than their freely feeding counterparties (FIG. 5b). Furthermore, plasminogen deficiency provided a unique approach to study the chronic effect of elevated nesfatin-1 in hyperphagic obese animals, which was impossible for the i.c.v. or i.p. administration due to the short half-time of nesfatin-1. Consequently, agrp and npy were found reduced in plg^−/−lepr^−/−, while pomc was elevated compared with plg^+/+lepr^−/− (FIG. 6), contradicting to the previous report that i.c.v. nesfatin-1 didn't alter the expression of pomc, npy and agrp. Consistent to the present finding, the same group reported the up-regulation of pomc by i.p. nesfatin-1 in NTS recently.

[12] = Clearance of i.v. nesfatin-1 from circulation; assay type: in vivo, mouse
[13] = test system: rats; conditions: injected directly into the brain of rats; cited from earlier work

With O=C(Nc1ccccc1)c1cc([N+](=O)[O-])ccc1Cl [GW9662] the “inhibition of the anti-diabetic effect of nesfatin-1” value ([1]; 0.45 μg per gram body weight i.v., 30 minutes before 100 ug nesfatin-1) was “fully inhibited”.

With NC[C@H]1CC[C@H](C(=O)O)CC1 [AMCA, tranexamic acid] the body weight [2] was “reduction”, the food intake [2] was “reduction” and the “circulating nesfatin-1” value [2] was “increased”.

For aprotinin, the body weight [2] was “reduction”, the food intake [2] was “reduction” and the “circulating nesfatin-1” value [2] was “increased”.

For plasmin, the “degradation of recombinant nesfatin-1 on incubation with plasmin” value [3] was “It was then incubated with plasmin and rapidly degraded as expected” and the “digestion of nesfatin-1 by plasmin (in vitro incubation)” value [3] was “Nesfatin-1 was completely digested by plasmin within 2 hours”.

In the case of c1cc(-c2cnn3cc(-c4ccc(OCCN5CCCCC5)cc4)cnc23)ccn1 [Compound C], the “inhibition of the anti-diabetic effect of nesfatin-1” value ([1]; 20 mg per kg body weight intraperitoneally before 100 ug nesfatin-1) is reported as “fully inhibited”.

B1: nesfatin-1: recombinant nesfatin-1 expressed and purified from genetically engineered E. coli; secreted N-terminus fragment of NUCB2 (protein)
peptide: VPIDVDKTKVHNTEPVENARIEPPDTGLYYDEYLKQVIEVLETDPHFREKLQKADIEEIRSGRLSQELDLVSHKVRTRLDEL
In the case of B1, the body weight [4] is given as “reduces body weight”, the food intake [4] is given as “inhibits food intake” and the “blood brain barrier crossing” value [5] is given as “crosses the Blood Brain Barrier (BBB)”. The blood glucose ([6]; 100 μg i.v., freely fed db/db) was “significantly reduced”, the diabetic improvement ([6]; i.c.v. injection, db/db, data not shown) was “little diabetic improvement” and the “duration of anti-diabetic effect” value ([6]; i.v.) was greater than 6 h. For the same molecule, the “dose and time dependence of anti-diabetic effect” value ([6]; i.v., FIG. 7d, e) was “dose- and time-dependent”, the blood glucose [7] was “decreased only when nesfatin-1 was injected with s.c. insulin” and the “uptake of blood sugar during IGTT” value [8] was “significantly enhanced the uptake of blood sugar”. The neuropsychological effect [9] was “increasing anxiety and fear-related behaviors”, the HDL in blood [10] was “unaffected” and the LDL in blood [10] was “significantly reduced”. For the same molecule, the “total cholesterol in blood” value [10] was “significantly reduced”, the triglyceride in blood [10] was “significantly reduced” and the “time to complete digestion by plasmin” value ([11]; FIG. 4b) was no more than 2 h. The “degradation on incubation with plasmin” value ([11]; recombinant nesfatin-1 from E. coli) was “rapidly degraded”, the “clearance in plg−/− versus plg+/+” value ([12]; i.v., data not shown) was “cleared much slower” and the half-life in circulation ([12]; mouse, in vivo) was 10 min.

B2: NUCB2: hypothalamus-secreted protein containing 396 amino acids, precursor of nesfatin-1 (protein, UniProt P80303 25-420, looked up)
Nucleobindin-2: VPIDIDKTKVQNIHPVESAKIEPPDTGLYYDEYLKQVIDVLETDKHFREKLQKADIEEIKSGRLSKELDLVSHHVRTKLDELKRQEVGRLRMLIKAKLDSLQDIGMDHQALLKQFDHLNHLNPDKFESTDLDMLIKAATSDLEHYDKTRHEEFKKYEMMKEHERREYLKTLNEEKRKEEESKFEEMKKKHENHPKVNHPGSKDQLKEVWEETDGLDPNDFDPKTFFKLHDVNSDGFLDEQELEALFTKELEKVYDPKNEEDDMVEMEEERLRMREHVMNEVDTNKDRLVTLEEFLKATEKKEFLEPDSWETLDQQQFFTEEELKEYENIIALQENELKKKADELQKQKEELQRQHDQLEAQKLEYHQVIQQMEQKKLQQGIPPSGPAGELKFEPHI
In the case of B2, the body weight [13] is given as “decreases body weight” and the feeding [13] is given as “promotes anorexia”.
